The values below come from publication PMC3310821, “Inactivation of Staphylococcal Phenol Soluble Modulins by Serum Lipoprotein Particles” (PLoS Pathogens, 2012).

Ends that are not written are not given here. * marks the point of attachment. For = O=C*

The data set deals with the molecule itself. Put plainly: SEC; 100 µg/ml PSMα3-FITC on Superdex 200 10/300GL equilibrated with PBS; OD492 nm.

B1: FITC-labeled PSMα3 (peptide)
peptide: For-MEFVAKLFKFFKDLLGKFLGNN
modifications: also: FITC label, site not given here
notes: labeled by incubating 1 mg/ml PSMα3 with 100 µg/ml FITC in 0.1 M sodium carbonate buffer pH 9.6; also called PSMα3-FITC
For the protein B1, the binding result was “binds”.
